Assay [1] has as its target T1, Biotin sY51 PSGL-1(42-62) peptide (human, sulfotyrosine at Y51; C-terminal Lys-biotin).
T1 construct: also called Y51(SO3) PSGL-1(42-62)
T1 peptide: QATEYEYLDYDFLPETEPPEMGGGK
Description: ELISA, immobilized biotin peptide. A digest of the protocol:
(§1)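 In this ELISA, half-well high binding plates (Corning Cat. #3690) received 3 ug/mL/25 ul per well of biotin-tagged PSGL-1 peptides covering residues 42 to 62, diluted in PBS, pH 7.4, and coated overnight at 4° C. Duplicate readings for each antibody were averaged and the average assay background was subtracted. PSGL-1 protein or peptide was the positive control.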
(In an ELISA, binding on a coated surface is turned into a signal by an enzyme label.)

Assay [2] deals with T2, Scrambled Y46,48,51(SO3) PSGL-1(42-62) biotin peptide (sulfotyrosine at peptide positions 5, 7 and 10; C-terminal Lys-biotin).
T2 construct: also called scrambled sulfated peptide: biotin
T2 peptide: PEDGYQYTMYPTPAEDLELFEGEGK
Description: ELISA, immobilized biotin peptide. An outline of the steps:
as §1

Assay [3] has as its target T3, Biotin PSGL-1(42-62) P55A peptide (C-terminal Lys-biotin).
T3 peptide: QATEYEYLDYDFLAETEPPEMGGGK
Description: ELISA, streptavidin-bound Ala peptide.

Assay [4] deals with T4, Biotin PSGL-1(42-62) D52A peptide (C-terminal Lys-biotin).
T4 peptide: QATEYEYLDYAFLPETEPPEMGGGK
Description: ELISA, streptavidin-bound Ala peptide.

Assay [5] addresses T5, PSGL-1(42-62) N-terminal peptide, sulfation state not told at the place (human, not fully specified; sulfation of Y46, Y48, Y51 not stated for these table columns).
T5 peptide: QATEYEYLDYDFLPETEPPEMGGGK
Description: binding to PSGL-1 42-62.

Assay [6] addresses T6, Recombinant human PSGL-1(ECD)-hFc1 (R&D Systems, Cat. 3345-PS) (human, UniProt Q14242 42-305).
T6 construct: Bought; Gln42-Val295 counted on AAC50061; also called PSGL-1-Fc; PSGL-1-hFc1 chimera; not shown: human IgG1 Fc, Pro100-Lys330
T6 sequence: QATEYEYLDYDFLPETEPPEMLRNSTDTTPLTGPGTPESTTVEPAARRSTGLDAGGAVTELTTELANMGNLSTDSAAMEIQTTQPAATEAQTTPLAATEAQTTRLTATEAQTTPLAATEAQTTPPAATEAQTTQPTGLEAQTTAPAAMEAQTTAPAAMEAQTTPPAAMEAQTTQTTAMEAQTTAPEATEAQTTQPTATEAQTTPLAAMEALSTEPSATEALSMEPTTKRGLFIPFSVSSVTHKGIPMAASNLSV
Description: Octet tandem; competitor 18K07. The procedure:
Antibody binning was performed by ForteBio Octet® using a tandem assay format, with anti-human IgG biosensor-immobilized PSGL-1(ECD)-hFc1 protein, binding of competitor mAb followed by analyte antibody. As competition controls, the same antibody was competed against itself, and mAb competition was performed bidirectionally.
Antibody binning by tandem octet was performed by immobilizing 10 ug/mL PSGL-1(ECD)-hFc1 (R&D Systems, Cat. #3345-PS) in PBS, pH 7.4, onto anti-human IgG capture biosensors (ForteBio, Cat. #18-5060), binding of 100 nM competitor antibody for 300 sec., followed by binding of 100 nM of analyte mAb for 300 s in kinetic buffer (0.1% BSA in PBS containing 0.02% tween 20 and 0.05% sodium azide, pH 7.4). Synagis (Johnson et al. (1997) J. Infect. Dis. 176:1215-1224) served as a negative control mAb for competition. An Fc quench step (0.25 mg/mL human IgG Fcl; BioXcell, Cat. #BE0096, in kinetic buffer) was included when human mAbs were tested to prevent high background from the antibodies binding to the anti-human IgG biosensor. Biosensor regeneration buffer consisted of 10 mM glycine, pH 2.0.
In general terms: Biolayer interferometry detects binding as a change in optical thickness at a sensor tip.

One may read the EC50 as the concentration giving half of the maximal effect. Read a low EC50 as a more potent agent.

Positions count from the first letter of the chain named. Bounds are passed on as bounds.

B1: 19I01 (antibody, V domains shown)
VH: EVQLVESGGGLVKPGGSRKLSCAASGFTFSDYGMHWVRQAPEKGLEWVAYISSGSSTIYYADTVKGRFTISRDNAKNTLFLQMTSLRSEDTAMYYCARGVDGYWGQGTTLTVSS
VL: DVVMTQTPLSLPVSLGDQASISCRSSQSLVHSNGNTYLHWYLQKPGQSPKFLIYKVSNRFSGVPDRFSGSGSGTDFTLKISRVEAEDLGVYFCSQTTHVPLTFGAGTKLELK
notes: From mouse immunisation; only variable domains given; also called 19101
As for B1, the EC50 in assay [1] was determined as 1.22 nM; in assay [2] it was 198 nM; in assay [3], 8.21 nM; in assay [4] it was 3.18 nM.

B2: 16E17 (antibody, V domains shown)
VH: QIQLVQSGPELKKPGETVKISCKASGYAFTTYGMSWVKQAPGKGLKWMGWINTYSGVPKYADDFKGRFAFSLETSASTAYLHINNLKNEDTATYFCGRHYYGSSYFDYWGQGTTLTVSS
VL: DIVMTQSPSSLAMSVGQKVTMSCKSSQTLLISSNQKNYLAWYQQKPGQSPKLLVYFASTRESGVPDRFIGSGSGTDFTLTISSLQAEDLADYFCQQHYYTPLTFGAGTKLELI
notes: From mouse immunisation; only variable domains given
As to B2, in assay [5], the binding result is reported as “no binding”. Also, in assay [6], the “% binding of analyte mAb” value stood at 67.4%.

B3: 19L04 (antibody, IgG4, V domains shown)
VH: B2 VH with A28T, K59T, H82Q, N88I, G97A, S104H
VL: DIMMTQSPSSLAMSVGQKVTLRCKSSQSLLNSSNQKNYLAWYQQKPGQSPKLLVYFASTRESGVPVRFIGSGSGTDFTLTISSMQAEDLADYFCQQHYFSPLTFGAGTKLELK
notes: as for B2
Turning to B3, the binding result in assay [5] was “no binding”. Moreover, the “% binding of analyte mAb” value in assay [6] was found to be 50.5%.

B4: 19N05 (antibody, V domains shown)
VH: B2 VH with A28T, K59T, Y60F, H82Q, Y94F, G97A, H99N, S103N, S104H
VL: DVQITQSPSYLAASPGETISINCRASNNINKYLAWYQEKPGKTNKLLIYSGSTLQSGIPSRFSGSGSGTDFTLTISSLEPEDFAMYHCQQHNYYPLTFGAGTKLELK
notes: as for B2
For B4, the binding result in assay [5] is given as “no binding”. Further, the “% binding of analyte mAb” value in assay [6] worked out at 0%.

B5: 16L15 (antibody, V domains shown)
VH: DVKLVESGGGLVKLGGSLKLSCAASGFTFSSYYMSWVRQTPEKRLEWVATISNGGGSTYYPDSVKDRFTISRDNAKNTLYLQMSSLNSEDTAVYYCAKPLYYSNPWFAYWGQGTLVTVSA
VL: DVLLTQTPLSLPVSLGDQASISCRSSQSIVHSNGNTYLEWYLQKPGQSPKLLIYKVSNRFSGVPDRFSGSGSGTDFTLKISRVEAEDLGVYYCFQGSHVPRTFGGGTKLEIK
notes: as for B2
As for B5, the values for the EC50 in assay [1] and in assay [4] were 0.814 nM and 19.9 nM, respectively. The binding result in assay [2] is listed as “no binding”.

B6: 9F9 (antibody, V domains shown)
VH: EVQLVETGGGLVQPKGSLKLSCAASGFTFNTNAMNWVRQAPGKGLEWVARIRSKSNNYATYYADSVKDRFTISRDDTQSMIYLQMNNLKTEDTGMYYCVRGGSYWYFDVWGAGTTVTVSS
VL: B5 VL with L4M, H31N, R101W
notes: Control anti-PSGL-1 mAb, recombinant; only variable domains given; also called 9F6
Molecule B6 gave an EC50 in assay [3] of over 10 nM. Further, in assay [4], the binding result is “no binding”.

B7: 2E12 (antibody, V domains shown)
VH: QVQLQQSGAELARPGASVKLSCKASGYTFTNYGLNWVKQRTGQGLEWIGEIYPRSGNTYYNEKFKGKATLTADKSSSTAYMQLSSLTSEDSAVYFCATEGAYWGQGTLVTVSA
VL: DIVMTQTPLTLSVTIGQPASISCKSSQSLLHGNGKTYLNWLLQRPGQSPKLLIYLVSKLESGIPDRFSGSGSGTDFTLEISRVEAEDLGIYYCLQSTHFPRTFGGGTKLEIK
notes: Mouse hybridoma mAb; only variable domains given
On to B7, for which the EC50 in assay [1] was 0.659 nM; in assay [2], 30 nM.

B8: 5E12 (antibody, V domains shown)
VH: EIQLQQSGAELVRPGASVKLSCTASGFNIKDDYIHWVKQRPEQGLEWIGRIDPANGNTKSAPKFQDKATITADTSSNTAYLHLSSLTSEDTAVYYCSIRFAYWGQGTLVTVSA
VL: DVVMTQTPLSLSVSLGDQASISCRSSQSLVYRNGDTYLHWFLQKPGQSPKLLIYKVSNRFSGVPDRFSGSGSGTDFTLKISRVEAEDLGIYFCSQNTHVPYTFGGGTKLEIK
notes: as for B7
Turning to B8, the EC50 in assay [1] came to 0.547 nM; in assay [2], 32.3 nM.

B9: 18F02 (antibody, V domains shown)
VH: QVQLQQPGAELVKPGASVKLSCKASGYTFTSYWMHWVKQRPGQGLEWIGMIHPNSGRTNYNEKFKSKATLTVDKSSSTAYMQLSSLTSEDSAVYYCARSDYWGQGTTLTVSS
VL: DIVMTQAAFSNPVTLGTSASISCRSSKSLLHSDGITYLYWFLQRPGQSPQLLIYRMSNLASGVPDRFSGSGSGTDFTLRISRVEAEDVGVYYCAQMLEFPRTFGGGTKLEIK
notes: as for B2
B9: the EC50 in assay [1] is 0.705 nM; in assay [4], over 10 nM. Also, the binding result in assay [2] is given as “no binding”.

B10: 43B6 (antibody, V domains shown)
VH: EVQLQQSGPDLVKPGALVKISCKASGYSFTAYYIHWVKQSHGKSLEWIGRVNPNTGGTSYNPKFKGKAILNVDKSSSTAYMELRSLTSEDSAVYYCARSGSPYYRYDDWGQGTTLTVSS
VL: ENVLTQSPAIMSASPGEKVTMTCRASSTVNSTYLHWFQQKSGASPKLWIYGSSNLASGVPARFSGSGSGTSYSLTISSVEAEDAATYYCQQYSGYPLTFGAGTTLELK
notes: Control anti-PSGL-1 mAb, recombinant; only variable domains given; also called 43B3
B10: it took 1.8 nM to reach a half-maximal effect in assay [3] (EC50). In addition, in assay [4], the binding result is given as “no binding”.

B11: 05D01 (antibody, V domains shown)
VH: QVTLRESGGALVQPGGSLRLSCAASGFPLRSNAMTWVRQAPGKGLEWVSDIRGNGASTYYADSVKGRFTISRDDSNNILFLQMNSLRAEDTAVYYCVGHGSSSYWGQGTLVTVSS
VL: DVVMTQSPLSLPVTLGQPASISCRSSQSLVYRDGNIYLNWFQQRPGQSPRRLIYKVSNRDSGVPDRFSGSGSGTDFTLKISRVEAEDVGVYYCMQLTHWPPGFAQGTKLEIK
Turning to B11, the EC50 in assay [2] came to 1.33 nM.

B12: 18K07 (antibody, V domains shown)
VH: QIQLVQSGPELKKPGETVKISCEASGYTFTTYGMNWVKQAPGKGLKWMGWINTYSGVPTYADDFQGRFAFSVETSATTAYLQINNLKNEDAATYFCARSDDTYYGFAYWGQGTLVTVSA
VL: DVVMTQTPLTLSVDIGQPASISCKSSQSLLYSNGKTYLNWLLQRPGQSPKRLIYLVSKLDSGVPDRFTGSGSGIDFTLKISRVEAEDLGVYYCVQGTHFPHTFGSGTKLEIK
notes: as for B2
As to B12, the binding result in assay [5] is listed as “no binding”. For the same molecule, the “% binding of analyte mAb” value in assay [6] worked out at 35.2%.

The record behind these values is patent US20220396632A1 (VERSEAU THERAPEUTICS, published 2022).
